In patent US20080181901A1:

Target: endogenous Na,K-ATPase of tsA201 cells
Test: cell-based or functional assay

**Q.** Which decrease in endogenous ouabain-sensitive 86Rb+ uptake into intact tsA201 cells does the source give for “full-length MONaKA transfected into tsA201 cells (86Rb+ uptake assay)” here?
**A.** 19%
